Target: SCCA1 recombinant protein expressed on transfected HepG2 and CHO cells (human)

Work on “HBV viral particles present in the serum of patients with acute hepatitis B” yielded an HBV-DNA values of transfected cell lines relative to control cell lines of 8 times.

— patent publication US6344362
